Data on 167 variants can be found in the RNAGym collection of RNA variant scans (doi:10.7554/elife.80360).

B1: HDV Ribozyme (parent)
chain: GGCCGGCAUGGUCCCAGCCUCCUCGCUGGCGCCGGCUGGGCAACAUUCCGAGGGGACCGUCCCCUCGGUAAUGGCGAAUGGGACCCA

The data set covers variants of B1. Put plainly: self-cleavage, relative activity (ratio to wild type); higher = more cleavage; co-transcriptional.
Consider G53U C85U, for which the self-cleavage worked out at 0.969.
The result for G52A A83G reads 0.85.
As for G52A A83U, the self-cleavage came out at 0.475.
The result for G52A G80C reads 0.272; that for G52A G80A, 0.386.
Turning to G52A G80U, the self-cleavage is 0.262.
With G52C A83G the figure was 0.683; with G52C A83U, 0.389; with G52U A56C, 0.815.
The result for G52A G81A reads 0.529; that for G53A G59U, 0.862.
The result for G53A G59C reads 0.872; that for G52U A77G, 0.647.
On to G52A G53C, for which the self-cleavage was determined as 0.743.
With G52A A78U the figure was 0.277; with G52A A78C, 0.347; with G52U U72C, 0.426.
With G52U U72G the figure was 0.396.
With G52A G67C the figure was 0.878; with G52A G67A, 0.923; with G52C C84G, 0.978.
Turning to G53U C57U, the self-cleavage was 1.01.
On to G53U C57G, for which the self-cleavage stood at 1.1.
In the case of G53C G67A, the self-cleavage was 0.723.
The result for G53C G67C reads 0.427; that for G53C G67U, 0.631.
With G53U G74A, the self-cleavage is 0.646.
The result for G53U G74C reads 0.202; that for G53U G74U, 0.701.
Take G52A C86G: the self-cleavage worked out at 1.04.
As for G52A C86U, the self-cleavage amounted to 0.816.
With G52C G53C the figure was 0.582; with G52U G54C, 0.684.
As to G52U C57G, the self-cleavage stood at 0.95.
The result for G52U C57U reads 1.24; that for G52U U65A, 0.82.
With G52A U69C the figure was 1.21; with G52A G73C, 0.337.
The result for G52A G73A reads 0.602; that for G53C A78U, 0.525; that for G53C A78G, 0.554.
Regarding G52U C64A, the self-cleavage was determined as 0.911.
The result for G53A U60G reads 1.01; that for G53A U60A, 0.938; that for G54A A71U, 0.912.
With G52U A71U the figure was 0.781; with G53C G73U, 0.369; with G53C G73A, 0.782.
Take G53C G73C: the self-cleavage stood at 0.36.
Turning to G52A A56G, the self-cleavage was 0.801.
With G53U A78C the figure was 0.229; with G53U A78G, 0.739; with G53U A77U, 0.623.
With G53U A77C the figure was 0.453; with G53U G81U, 0.28; with G52U G81C, 0.298.
As for G52A A87C, the self-cleavage amounted to 1.13.
G52A A87U: the self-cleavage came out at 0.897.
For G52A C61U, the self-cleavage worked out at 0.879.
As to G53U U65G, the self-cleavage amounted to 0.831.
G52C A78C: the self-cleavage was determined as 0.0723.
With G53A A87G the figure was 0.995.
The result for G52U G80U reads 0.312; that for G53U G55C, 1.01.
With G52U G73U the figure was 0.305; with G52U G73C, 0.155; with G53C C62A, 0.937.
For the variant G53C C62U, the self-cleavage is 1.03.
The result for G52C C85A reads 0.969; that for G52C C85G, 1.03; that for G53C, 0.97.
In the case of G53U, the self-cleavage was 1.01.
The result for G53A reads 1; that for G53C C84U, 0.712.
The result for G53C C61U reads 1.2; that for G53C C61G, 0.955.
With G53C C86G the figure was 0.903; with G52U U69G, 1.19; with G52C C61A, 0.857.
On to G52U G74C, for which the self-cleavage worked out at 0.363.
For A51U U79G, the self-cleavage amounted to 0.534.
The result for G52C U60C reads 0.966; that for G53U A71G, 0.843.
With G52C C64A the figure was 0.753; with G52C C64G, 0.739.
With G54A A77G the figure was 0.614; with G54A A77U, 0.634.
Take G52U G76U: the self-cleavage stood at 1.05.
On to G52U G76C, for which the self-cleavage came to 0.921.
With G52C C66G the figure was 0.672; with G52C C66U, 0.965; with G53A G67U, 0.884.
With G53A C58U the figure was 0.987.
The result for G53A C58A reads 0.962; that for G53U C58U, 1.03.
As to G53U C58A, the self-cleavage worked out at 1.02.
With G53U C58G the figure was 0.939.
As to G52U C63U, the self-cleavage was 1.
With G52C G81U the figure was 0.579; with G52C G81C, 0.242.
With G54A A78U the figure was 0.245; with G52A G59A, 1.07; with G52A G59U, 0.865.
With G52A G59C the figure was 1.05.
Turning to G52C G67U, the self-cleavage stood at 0.753.
Turning to G52C G67A, the self-cleavage turned out to be 0.62.
With G52A the figure was 1.02; with G52U, 0.938.
With G52C the figure was 1.01.
With G53C G54U the figure was 1.08; with G53C G54C, 0.706; with G54A A70C, 0.779.
Turning to G53C A87U, the self-cleavage came out at 0.903.
The result for G53A C84G reads 0.85; that for G53C G59U, 0.967.
As for G52U G82A, the self-cleavage stood at 0.277.
As for G54A A56U, the self-cleavage is 0.878.
The result for G54A A56C reads 1.03.
With G52A G55C, the self-cleavage came out at 0.923.
With G52C C75G the figure was 0.104; with G53C C58U, 1.14.
With G53C C58A the figure was 1.06.
Regarding G53C A70U, the self-cleavage is 0.988.
As for G53C A70C, the self-cleavage was determined as 0.653.
With G53C A70G, the self-cleavage turned out to be 0.962.
With G53U G82U the figure was 0.427.
With G53U A87G the figure was 1.03; with G53U A87U, 0.969; with G53U A87C, 0.984.
With G54A A87G the figure was 0.877.
Regarding G53A G54C, the self-cleavage was 0.857.
With G52A C66U the figure was 0.982; with G52A C66G, 0.841.
The result for G52C A87C reads 0.85; that for G53A U79C, 0.376.
The result for G52C G55A reads 0.901.
Regarding G52C G55U, the self-cleavage was 0.966.
With G53U A70G the figure was 1.08; with G53U A70U, 0.739; with A51U G52U, 0.889.
The result for A51U G52C reads 0.849.
The result for G53A C75G reads 0.156; that for G53A G74U, 0.59; that for G53A G74C, 0.265.
Consider G53U G67A, for which the self-cleavage amounted to 0.855.
As for G53U G68C, the self-cleavage came to 0.277.
With G53C U72A the figure was 0.601.
As to G53C U72C, the self-cleavage worked out at 1.02.
For G53C U72G, the self-cleavage came to 0.697.
The result for G52U C66G reads 0.472; that for G52U C66A, 0.618; that for G52U C66U, 0.737.
The result for G53A G80U reads 0.234; that for G52U A78U, 0.378.
With G52U A78C the figure was 0.292; with A51U G73A, 0.607; with A51U G73C, 0.415.
As to A51U G73U, the self-cleavage was determined as 0.504.
Turning to G52A G74A, the self-cleavage turned out to be 0.518.
The result for A51U U69G reads 0.98; that for G53C C66U, 0.918; that for G53C C66G, 1.01.
The result for G53C C66A reads 0.73; that for G53A A83U, 0.521.
With G53A A83C the figure was 0.464; with G53A A83G, 0.802; with G52C G76U, 1.03.
